Test results from patent publication US20230080842A1 (WUHAN YZY BIOPHARMA, published 2023).

B1: Y116-B1 (bispecific antibody)
light: DIQMTQSPSSLSASVGDRVTITCKASQDVGIAVAWYQQKPGKVPKLLIYWASTRHTGVPDRFSGSGSGTDFTLTISSLQPEDVATYYCQQYSSYPYTFGQGTKVEIKRTVAAPSVFIFPPSDEQLKSGTASVVCLLNNFYPREAKVQWKVDNALQSGNSQESVTEQDSKDSTYSLSSTLTLSKADYEKHKVYACEVTHQGLSSPVTKSFNRGECGAAAGGGGSGGGGSGGGGSEVQLVESGGGVVRPGGSLRLSCAASGFTFDDYGMSWVRQAPGKGLEWVSGINWNGGSTGYADSVKGRFTISRDNAKNSLYLQMNSLRAEDTAVYYCARGRSLLFDYWGQGTLVTVSR
heavy: EVQLVESGGGLVQPGGSLRLSCAASGFDFSRYWMSWVRQAPGKGLEWIGEINPDSSTINYAPSLKDKFIISRDNAKNSLYLQMNSLRAEDTAVYYCARPDGNYWYFDVWGQGTLVTVSSASTKGPSVFPLAPSSKSTSGGTAALGCLVKDYFPEPVTVSWNSGALTSGVHTFPAVLQSSGLYSLSSVVTVPSSSLGTQTYICNVNHKPSNTKVDKKVEPKSCGAAAGGGGSGGGGSSELTQDPAVSVALGQTVRITCQGDSLRSYYASWYQQKPGQAPVLVIYGKNNRPSGIPDRFSGSSSGNTASLTITGAQAEDEADYYCNSRDSSGNHVVFGGGTKLTVLGYPGGGGSDKTHTCPPCPAPPVAGPSVFLFPPKPKDTLMISRTPEVTCVVVDVSHEAPEVQFNWYVDGVEVHNAKTKPREEQFNSTFRVVSVLTVVHQDWLNGKEYKCKVSNKGLPAPIEKTISKTKGQPREPQVYTLPPSRDELTKNQVSLTCLVKGFYPSDIAVEWESNGQPENNYKTTPPVLDSDGSFFLYSKLTVDKSRWQQGNVFSCSVMHEALHNHYTQKSLSLSPGK
B2: Y116-B2 (bispecific antibody)
light: DIQMTQSPSSLSASVGDRVTITCKASQDVGIAVAWYQQKPGKVPKLLIYWASTRHTGVPDRFSGSGSGTDFTLTISSLQPEDVATYYCQQYSSYPYTFGQGTKVEIKRTVAAPSVFIFPPSDEQLKSGTASVVCLLNNFYPREAKVQWKVDNALQSGNSQESVTEQDSKDSTYSLSSTLTLSKADYEKHKVYACEVTHQGLSSPVTKSFNRGECGGGGSEAAAKGGGGSEVQLVESGGGVVRPGGSLRLSCAASGFTFDDYGMSWVRQAPGKGLEWVSGINWNGGSTGYADSVKGRFTISRDNAKNSLYLQMNSLRAEDTAVYYCARGRSLLFDYWGQGTLVTVSR
heavy: EVQLVESGGGLVQPGGSLRLSCAASGFDFSRYWMSWVRQAPGKGLEWIGEINPDSSTINYAPSLKDKFIISRDNAKNSLYLQMNSLRAEDTAVYYCARPDGNYWYFDVWGQGTLVTVSSASTKGPSVFPLAPSSKSTSGGTAALGCLVKDYFPEPVTVSWNSGALTSGVHTFPAVLQSSGLYSLSSVVTVPSSSLGTQTYICNVNHKPSNTKVDKKVEPKSCGGGGSEAAAKGGGGSSELTQDPAVSVALGQTVRITCQGDSLRSYYASWYQQKPGQAPVLVIYGKNNRPSGIPDRFSGSSSGNTASLTITGAQAEDEADYYCNSRDSSGNHVVFGGGTKLTVLGYPGGGGSDKTHTCPPCPAPPVAGPSVFLFPPKPKDTLMISRTPEVTCVVVDVSHEAPEVQFNWYVDGVEVHNAKTKPREEQFNSTFRVVSVLTVVHQDWLNGKEYKCKVSNKGLPAPIEKTISKTKGQPREPQVYTLPPSRDELTKNQVSLTCLVKGFYPSDIAVEWESNGQPENNYKTTPPVLDSDGSFFLYSKLTVDKSRWQQGNVFSCSVMHEALHNHYTQKSLSLSPGK

Biological target: T1, Human SLAMF7 (human, UniProt Q9NQ25 23-226)
T1 construct: also called SLAMF7 antigen; not shown: His tag
Experiment: ELISA, plate coated with His-tagged antigen
Experimental: 2) addition of antibody: according to the experimental design, operation was performed at room temperature, and the antibody was diluted in gradient with 1% BSA in PBS. […] The diluted antibody was added into wells of microtiter plate at 200 μl/well, incubated at room temperature for 2h, and then the supernatant was discarded;

| Binder | EC50 [nM] |
| --- | --- |
| B1 | 0.636 |
| B2 | 0.648 |
